# Measurements: EP2239269B1, “Use of peptides derived from copolymer-1 as molecular weight markers” (YEDA RESEARCH AND DEVELOPMENT CO., LTD., priority 1998, dated 2013)
# B1: TV-66: 66-mer sequence-defined polypeptide molecular weight marker of Ala, Glu, Tyr, Lys, molecular weight = 7040 daltons (peptide)
# chain: AKKYAKKEKAYAKAKKAEAKAAKKAKAEAKKYAKAAKAEKKEYAAAEAKYKAEAAKAAAKEAAYEA
# B2: TV-86: 86-mer sequence-defined polypeptide molecular weight marker of Ala, Glu, Tyr, Lys, molecular weight = 9220 daltons (peptide)
# chain: AKKYAKKEKAYAKKAEKAAKKAEAKAYKAAEAKKKAKAEAKKYAKAAKAEKKEYAAAEAKYKAEAAKKAYKAEAAKAAAKEAAYEA
# B3: TV-77: 77-mer sequence-defined polypeptide molecular weight marker of Ala, Glu, Tyr, Lys, molecular weight = 8259 daltons (peptide)
# chain: AKKYAKKEKAYAKKAEKAAKKAEAKAYKAAEAKKKAKAEAKKYAKAAKAEKKEYAAAEAKYKAEAAKAAAKEAAYEA
# B4: TV-109: 109-mer sequence-defined polypeptide molecular weight marker, molecular weight = 11727 daltons (peptide)
# chain: AKKYAKKAEKAYAKKAKAAKEKKAYAKKEAKAYKAAEAKKKAKAEAKKYAKEAAKAKKEAYKAEAKKYAKAAKAEKKEYAAAEAKKAEAAKAYKAEAAKAAAKEAAYEA
# Assay: Stability of markers in solution at room temperature, followed by peak retention time on chromatography
# Type: physicochemical
# Details: average of the four analyses over 24 hours, room temperature
# Method: Stability of markers in solution - TV-markers were chromatographed four times over a period of 24 hours. All markers were kept as solutions at room temperature and were analyzed at 8 hour intervals.
row,Molecule,"Peak Retention Time, Average"
1,B1,27.404
2,B2,26.129
3,B3,26.746
4,B4,24.842

# Same assay, conditions: solution at room temperature, 0.1 mg/ml; 1st of four analyses at 8 hour intervals over 24 hours
row,Molecule,Peak Retention Time [min]
1,B1,27.400
2,B2,26.117
3,B3,26.750
4,B4,24.783

# Same assay, conditions: solution at room temperature, 0.1 mg/ml; 2nd of four analyses at 8 hour intervals
row,Molecule,Peak Retention Time [min]
1,B1,27.350
2,B2,26.100
3,B3,26.700
4,B4,24.850

# Same assay, conditions: solution at room temperature, 0.1 mg/ml; 3rd of four analyses at 8 hour intervals
row,Molecule,Peak Retention Time [min]
1,B1,27.433
2,B2,26.150
3,B3,26.750
4,B4,24.883

# Same assay, conditions: solution at room temperature, 0.1 mg/ml; 4th of four analyses at 8 hour intervals
row,Molecule,Peak Retention Time [min]
1,B1,27.433
2,B2,26.150
3,B3,26.783
4,B4,24.850

# Assay: Stability of marker solutions stored frozen at -10 to -20°C, followed by retention time at column calibration
# Type: physicochemical
# Parameters: unit not given here
# Details: stored at -10° to -20°C; date of calibration 04-step-97, interval 105 days
# Method: In addition, solutions of the markers were stored for up to 3 ½ months under various storage conditions (2-8 °C, -10 to -20°C, with/without azide).
row,Molecule,RT
1,B1,26.300
2,B2,24.950
3,B3,25.550
4,B4,23.583

# Same assay, conditions: stored at -10° to -20°C; date of calibration 09-Jul-97, interval 48 days
row,Molecule,RT
1,B1,26.317
2,B2,25.017
3,B3,25.617
4,B4,23.650

# Same assay, conditions: stored at -10° to -20°C; date of calibration 22-May-97, interval -
row,Molecule,RT
1,B1,26.233
2,B2,24.883
3,B3,25.467
4,B4,23.500

# Assay: Circular dichroism, molar ellipticity (Jobin-Yvon CD spectrophotometer)
# Type: physicochemical
# Parameters: unit not given here
# Details: not given
# Description: Circular dichroism - Structural similarity between the molecular weight markers and glatiramer acetate is a pre-requisite for an appropriate calibration of a molecular sizing column. Differences in polypeptide structure may result in different hydrodynamic size and consequently in altered retention time in the chromatographic system. The ellipticity, determined by circular dichroism, serves as a measure of the secondary structure of a polypeptide. When the ellipticity of the molecular weight markers and glatiramer acetate is similar, the structures of the two will be similar.
# The molar ellipticity of the polypeptides was determined on a Jobin-Yvon CD spectrophotometer. […] Note that while the exact molecular weight for the TV-markers was plotted, the averace-by-number molecular weight for the glatiramer acetate was used in the plot.
row,Molecule,M-ellip. (210nm)
1,B1,-3.5172
2,B2,-5.4546
3,B3,-4.8365
4,B4,-6.818
